Measured values as given in patent publication US10428140B2, “Anti-EphA4 antibody” (EISAI R&D MANAGEMENT CO., LTD., priority 2015, dated 2019).
Where a chain is given by its changes, count along the chain named.

B1: 135 (antibody, V domains shown)
VH: QVQLVQSGSELKKPGASVKVSCKASGYTFTDYSMHWVRQAPGQGLEWMGWINTETGEPTYADDFKGRFVFSLDTSVSTAYLQISSLKAEDTAVYYCARIPLYYYGSRYWYFDVWGQGTTVTVSS
VL: EIVMTQSPATLSVSPGERATLSCRASENIYRNLAWYQQKPGQSPRLLIYAATNLADGIPARFSGSGSGTEYTLTISSLQSEDFAVYYCQHFWGTPWTFGQGTKVEIK
modifications: synthetic humanized antibody heavy chain variable region sequence; synthetic humanized antibody light chain variable region sequence
B2: 75 (antibody)
VH: B1 VH with D62Q, D63G, K65T
VL: DIQMTQSPSSLSASVGDRVTITCRASENIYRNLAWYQQKPGKAPKLLVYAATNLADGVPSRFSGSGSGTDYTLTISSLQPEDFATYYCQHFWGTPWTFGQGTKVEIK
chain: ASTKGPSVFPLAPSSKSTSGGTAALGCLVKDYFPEPVTVSWNSGALTSGVHTFPAVLQSSGLYSLSSVVTVPSSSLGTQTYICNVNHKPSNTKVDKRVEPKSCDKTHTCPPCPAPPAAAPSVFLFPPKPKDTLMISRTPEVTCVVVDVSHEDPEVQFNWYVDGVEVHNAKTKPREEQFNSTFRVVSVLTVVHQDWLNGKEYKCKVSNKGLPAPIEKTISKTKGQPREPQVYTLPPSREEMTKNQVSLTCLVKGFYPSDIAVEWESNGQPENNYKTTPPMLDSDGSFFLYSKLTVDKSRWQQGNVFSCSVMHEALHNHYTQKSLSLSPG
modifications: synthetic humanized antibody heavy chain variable region sequence; synthetic humanized antibody light chain variable region sequence; synthetic antibody constant region sequence
B3: 78 (antibody, V domains shown)
VH: B1 VH with E46K
VL: B2 VL
modifications: synthetic humanized antibody heavy chain variable region sequence; synthetic humanized antibody light chain variable region sequence
B4: 77 (antibody, V domains shown)
VH: B1 VH
VL: B2 VL
modifications: synthetic humanized antibody heavy chain variable region sequence; synthetic humanized antibody light chain variable region sequence
B5: 67 (antibody, V domains shown)
VH: B1 VH with V2I, E46K, D62Q, D63G, K65T
VL: B2 VL
modifications: synthetic humanized antibody heavy chain variable region sequence; synthetic humanized antibody light chain variable region sequence
B6: 76 (antibody, V domains shown)
VH: B1 VH with E46K, D62Q, D63G, K65T
VL: B2 VL
modifications: synthetic humanized antibody heavy chain variable region sequence; synthetic humanized antibody light chain variable region sequence

target: T1, human EphA4 (Homo sapiens, UniProt P54764); assay: Affinity of humanized antibodies by SPR (Biacore T200); assay type: binding; conditions: human EphA4 extracellular region-SEAP-His; 1:1 binding model
T1 construct: made in house; not restated for the human SEAP-His protein
T1 sequence (P54764 20-547): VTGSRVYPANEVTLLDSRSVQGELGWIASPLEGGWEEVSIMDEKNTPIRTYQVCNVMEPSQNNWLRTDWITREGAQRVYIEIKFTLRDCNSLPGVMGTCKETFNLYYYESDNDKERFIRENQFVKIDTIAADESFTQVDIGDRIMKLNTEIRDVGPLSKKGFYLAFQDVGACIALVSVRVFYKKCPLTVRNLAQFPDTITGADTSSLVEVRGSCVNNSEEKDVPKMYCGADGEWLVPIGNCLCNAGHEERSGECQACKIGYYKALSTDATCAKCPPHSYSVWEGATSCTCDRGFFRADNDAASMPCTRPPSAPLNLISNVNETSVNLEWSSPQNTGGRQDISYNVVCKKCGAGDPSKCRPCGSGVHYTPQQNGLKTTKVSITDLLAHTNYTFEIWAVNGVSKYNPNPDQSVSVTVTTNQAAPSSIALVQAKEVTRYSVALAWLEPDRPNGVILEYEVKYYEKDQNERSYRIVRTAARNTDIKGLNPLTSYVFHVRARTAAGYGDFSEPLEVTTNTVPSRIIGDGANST
Method in brief: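 Humanized antibodies captured on protein A chip (antibody A via immobilized rat anti-mouse IgG1) at about 30 to 60 RU in HBS-EP; human EphA4 extracellular region-SEAP-His injected single-cycle at 0.6 to 50 nM, 120 s association, 900 s dissociation. KD = kd/ka from 1:1 binding fits.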

ka [M⁻¹ s⁻¹]	kd [s⁻¹]	Molecule
320000	0.0004	B1
380000	0.00042	B2
340000	0.00039	B3
410000	0.00058	B4
330000	0.00035	B5
330000	0.00034	B6

same assay, conditions: human EphA4 extracellular region-SEAP-His; KD=kd/ka

Kd [nM]	Molecule
1.3	B1
1.2	B2
1.1	B3
1.4	B4
1.1	B5
1	B6

target: T2, human EphA4 (binding to human Ephrin A5) (Homo sapiens, UniProt P54764); assay: Human EphA4-human ligand binding inhibition ELISA of humanized antibodies (biotinylated Ephrin A5-Fc); conditions: biotinylated human Ephrin A5-Fc 0.7 nM
T2 construct: made in house; not restated for the human SEAP-His protein
T2 sequence (P54764 20-547): as above
Method in brief: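 Wells coated with anti-alkaline phosphatase antibody captured human EphA4 extracellular region-SEAP-His at 10 nM. Biotinylated human Ephrin A5-Fc (0.7 nM) and serially diluted humanized antibody (0-3000 nM) were added together for 1 h at room temperature. Bound ligand was detected with HRP-streptavidin and TMBZ at A450.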

IC50 [nM]	Molecule
2.5	B1
2.9	B2
2.8	B3
3.5	B4
4.4	B5
2.9	B6
